Consider nine molecules from PMC8244865, “Recruitment of phospholipase Cγ1 to the non-structural membrane protein pK15 of Kaposi Sarcoma-associated herpesvirus promotes its Src-dependent phosphorylation” (PLoS Pathogens, 2021).

Non-standard residues stand in square brackets, D forms with d. No end group written: not given here. pY = N[C@@H](Cc1ccc(OP(=O)(O)O)cc1)C(=O)O

Assay [1] has as its target GST-fused pK15 cytoplasmic tail (pK15 CT WT), phosphorylated in vitro by Src (UniProt Q9QR69). The assay is described as follows: AlphaLISA. To be noted: read off a plot. For orientation: Bead proximity is the source of the signal in Alpha formats.
Assay [2] concerns the target GST-pK15 CT N2 truncation mutant, phosphorylated in vitro by 2xStrep-Src (UniProt Q9QR69). The assay is described as follows: AlphaLISA. The following applies: parent: est. 17000; read off a plot.
In assay [3] the test system is PLCγ1 tSH2 domain (Src-mediated phosphorylation, Y^783). Briefly: in vitro Src kinase assay, PLCγ1 tSH2 Y783 phosphorylation. The following applies: 0.6 μM tSH2, 0.085 μM Src, 1.25–5 μM peptide or fixed 5.0 μM; 37°C; 1 hour or 45 min (method); pY783 Western blot. The format is biochemical. As for the experimental part: Fig 7 The pK15 CT domain enhances Src-mediated phosphorylation of the PLCγ1 tSH2 domain. (A) The purified PLCγ1 tSH2 domain (0.6 μM) was incubated with limiting amounts (0.085 μM) of recombinant purified Src kinase expressed in insect cells in the presence of increasing concentrations (1.25–5 μM) of phosphorylated peptides representing the last 12 (pK15 12mer) or 35 (pK15 35mer) amino acids of the pK15 cytoplasmic domain for 1 hour at 37°C. The reaction was stopped using SDS sample buffer and analysed by SDS-PAGE and Western blot using an antibody to the PLCγ1 pY^783 residue (top panel) or to the His tag on the recombinant tSH2 domain (bottom panel). (B) Same as above, except that a fixed concentration (5.0 μM) of the 12mer peptide, the 35mer peptide or the pK15 truncation construct GST-pK15 CT^N2 [51] were used. The increased phosphorylation of the tSH2 domain in the presence of the 35mer peptide and pK15 CT^N2 can be seen. (C) Increasing concentrations of the phosphorylated pK15 12mer peptide were used to inhibit the increased src-mediated phosphorylation of tSH2 induced by 2.5 μM of the pK15 35mer peptide. Experimental conditions were as in panel A.
To test the impact of a pK15 CT fragment (pK15 CT^N2) or phosphorylated pK15 peptides representing the last 12 (DDLp[…]) or 35 ([…]pYEEVLFRN) amino acids of pK15 CT on the Src-mediated phosphorylation of the PLCγ1 tSH2 domain, GST-pK15CT^N2 was first phosphorylated with Src in vitro as described in the preceding paragraph. Phosphorylated GST-pK15 CT^N2 or the phosphorylated pK15 peptides, suspended in 50 mM Tris pH7.4, 300 mM NaCl, 1 mM DTT, were then added to the purified recombinant tSH2 domain (0.6 μM) together with a limiting amount of recombinant Src kinase (0.085 μM) in kinase buffer (20 mM Tris pH7.4, 20 mM NaCl, 1 mM DTT, 10 mM MgCl2, 0.2 mM ATP, 0.5 mM Sodium orthovanadate, 0.5 mM β-glycerophosphate) and the reaction allowed to proceed for 45 min. The reaction mix was then analysed by Western blot using an antibody to the phosphorylated Y^783 in the linker region of the PLCγ1 tSH2 domain and an antibody to the 5x His tag. To test the inhibitory effect of the phosphorylated 12mer pK15 peptide on the enhancement of PLCγ1 tSH2 domain phosphorylation induced by the pK15 35mer peptide, increasing concentrations (1.25–5.0 μM) of the 12mer peptide were added to a reaction mix containing the purified recombinant tSH2 domain (2.5 μM), the phosphorylated pK15 35mer (2.5 μM), and recombinant Src kinase (0.085 μM). Following a 45 min incubation at 37°C, the reaction mixture was analysed by Western blot as above.
A general note: Immunoblotting shows a protein as a band on a membrane.

The target of assay [4] is T1, GST-pK15 CT N2 truncation mutant, phosphorylated in vitro by 2xStrep-Src, Q9QR69.
T1 chain: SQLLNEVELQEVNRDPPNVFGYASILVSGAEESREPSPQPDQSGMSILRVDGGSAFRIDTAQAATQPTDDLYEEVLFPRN
The assay is described as follows: AlphaLISA. To be noted: chain shown with the change;, read off a plot.

Assay [5] has as its target T2, GST-fused pK15 cytoplasmic tail (pK15 CT WT), phosphorylated in vitro by Src, Q9QR69.
T2 chain: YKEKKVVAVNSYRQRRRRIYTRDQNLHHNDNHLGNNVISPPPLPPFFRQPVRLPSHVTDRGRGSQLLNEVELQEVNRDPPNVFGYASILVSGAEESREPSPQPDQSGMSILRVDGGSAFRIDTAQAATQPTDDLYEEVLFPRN
The assay is described as follows: AlphaLISA. To be noted: chain shown with the change;, read off a plot.

Assay [6] has as its target T3, PLCγ1 tSH2 domain (aa 545-790) (UniProt P19174 545-790).
T3 construct: also called WT tSH2; source: E. coli BL21(DE3), purified (HisTrap, 3C cleavage, SEC)
T3 sequence (looked up): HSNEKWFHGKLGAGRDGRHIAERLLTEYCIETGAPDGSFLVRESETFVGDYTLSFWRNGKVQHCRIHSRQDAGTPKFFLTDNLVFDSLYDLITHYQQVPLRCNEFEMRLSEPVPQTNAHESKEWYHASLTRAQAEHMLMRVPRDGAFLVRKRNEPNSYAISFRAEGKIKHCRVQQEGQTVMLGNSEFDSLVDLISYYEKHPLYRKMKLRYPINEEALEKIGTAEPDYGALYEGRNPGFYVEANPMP
The assay is described as follows: microfluidic diffusional sizing (Fluidity One-W); 200 nM 5,6-FAM peptide held constant, PLCγ1 domains varied from 0 nM to 8000 nM, room temperature, 100 mM MES, 150 mM NaCl, 3 mM TCEP, pH 6.5; hydrodynamic radius fitted; triplicate. The following applies: both partners purified.

The target of assay [7] is T4, PLCγ1 tSH2 R694L (aa 545-790) (UniProt P19174 545-790, R694L).
T4 construct: source: E. coli BL21(DE3), purified (HisTrap, 3C cleavage, SEC)
T4 sequence (looked up): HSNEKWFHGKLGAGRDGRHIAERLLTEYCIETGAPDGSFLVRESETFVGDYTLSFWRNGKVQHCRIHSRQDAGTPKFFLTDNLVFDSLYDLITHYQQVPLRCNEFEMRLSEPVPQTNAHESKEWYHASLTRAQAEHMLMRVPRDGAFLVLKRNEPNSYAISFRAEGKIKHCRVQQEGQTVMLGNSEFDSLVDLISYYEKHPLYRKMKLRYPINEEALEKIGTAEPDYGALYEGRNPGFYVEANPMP
The assay is described as above. The following applies: both partners purified.

Assay [8] has as its target T5, PLCγ1 nSH2 domain (aa 545-662) (UniProt P19174 545-662).
T5 construct: 15N-labelled for the NMR titration; source: E. coli BL21(DE3), purified (HisTrap, 3C cleavage, SEC)
T5 sequence (looked up): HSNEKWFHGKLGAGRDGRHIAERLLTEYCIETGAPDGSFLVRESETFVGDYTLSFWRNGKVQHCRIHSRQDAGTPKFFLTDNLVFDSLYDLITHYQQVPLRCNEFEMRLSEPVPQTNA
The description is as above. To be noted: both partners purified.

The target in assay [9] is T6, PLCγ1 cSH2 domain (aa 668-790) (UniProt P19174 668-790).
T6 construct: PLCγ1 C-terminal SH2 domain with the cSH2-SH3 linker, residues 668-790; 15N-labelled for the NMR titration; also called cSH2 (668–790); source: E. coli BL21(DE3), purified (HisTrap, 3C cleavage, SEC)
T6 sequence (looked up): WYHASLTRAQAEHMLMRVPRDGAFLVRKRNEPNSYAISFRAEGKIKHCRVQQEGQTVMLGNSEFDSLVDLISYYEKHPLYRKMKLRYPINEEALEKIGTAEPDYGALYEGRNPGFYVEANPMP
The assay is described as above. To be noted: both partners purified.

The target of assay [10] is T7, PLCγ1 tSH2 R586L (aa 545-790) (UniProt P19174 545-790, R586L).
T7 construct: source: E. coli BL21(DE3), purified (HisTrap, 3C cleavage, SEC)
T7 sequence (looked up): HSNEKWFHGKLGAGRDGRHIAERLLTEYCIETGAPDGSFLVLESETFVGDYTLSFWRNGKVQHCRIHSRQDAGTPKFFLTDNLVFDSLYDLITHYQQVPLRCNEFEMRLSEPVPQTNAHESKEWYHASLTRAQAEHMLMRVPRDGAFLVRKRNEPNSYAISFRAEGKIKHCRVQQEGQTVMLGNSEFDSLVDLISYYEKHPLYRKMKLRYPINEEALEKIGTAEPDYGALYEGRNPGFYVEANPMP
The assay is described as above. The following applies: both partners purified.

In general, Kd refers to a measure of binding affinity in units of concentration.

Consider “His-tagged purified PLCγ1 tandem SH2 (tSH2) domain R586L; R694L”, for which the response in [1] (parent: est. 13000) turned out to be 350.

For the molecule “His-tagged purified PLCγ1 cSH2 domain R694L”, the response in [1] (parent: est. 19000) was determined as 1000; in assay [2], 250.

“His-tagged purified PLCγ1 tandem SH2 (tSH2) domain R694L”: in [1] (parent: est. 13000), the response worked out at 850.

On to “SILRVDGGSAFRIDTAQAATQPTDDLpYEEVLFRN [pK15 35mer, phosphorylated pK15 peptide corresponding to the last 35 amino acids of pK15 CT]”, for which, in [3], the “effect on Src-mediated phosphorylation of PLCγ1 tSH2” value was “enhanced the Src-mediated phosphorylation of the PLCγ1 tSH2 domain in a dose dependent manner”.

For “His-tagged purified PLCγ1 SA (γ-specific array) R694L”, in assay [1] (parent: est. 4000), the response is 1400.

For “His-tagged purified PLCγ1 SA (γ-specific array) R586L; R694L”, the response in assay [1] (parent: est. 4000) is 700.

B1: His-tagged purified PLCγ1 tandem SH2 (tSH2) domain R586L (protein)
chain: HSNEKWFHGKLGAGRDGRHIAERLLTEYCIETGAPDGSFLVLESETFVGDYTLSFWRNGKVQHCRIHSRQDAGTPKFFLTDNLVFDSLYDLITHYQQVPLRCNEFEMRLSEPVPQTNAHESKEWYHASLTRAQAEHMLMRVPRDGAFLVRKRNEPNSYAISFRAEGKIKHCRVQQEGQTVMLGNSEFDSLVDLISYYEKHPLYRKMKLRYPINEEALEKIGTAEPDYGALYEGRNPGFYVEANPMP
Turning to B1, the response was 12000 in assay [4] (parent: est. 14000) and 9800 in [5] (parent: est. 13000).

B2: 5,6-FAM-labelled phosphorylated pK15 12mer peptide (peptide)
peptide: {5,6‑FAM}-DDL[pY]EEVLFPRN
notes: last 12 residues of KSHV pK15 cytoplasmic tail; also called 5,6-FAM-labelled pK15 (12mer); phosphorylated pK15 peptide; source: synthetic peptide, bought: Caslo ApS
For B2, the Kd in assay [6] is 1500 ± 450 nM; in [7], 6.32 ± 0.475 µM; in assay [8], 180 ± 43 nM; in assay [9], 166 ± 30 nM; in assay [10], 440 ± 77 nM.

B3: His-tagged purified PLCγ1 SA (γ-specific array) R586L (protein)
chain: SIKNGILYLEDPVNHEWYPHYFVLTSSKIYYSEETSSDQGNEDEEEPKEVSSSTELHSNEKWFHGKLGAGRDGRHIAERLLTEYCIETGAPDGSFLVLESETFVGDYTLSFWRNGKVQHCRIHSRQDAGTPKFFLTDNLVFDSLYDLITHYQQVPLRCNEFEMRLSEPVPQTNAHESKEWYHASLTRAQAEHMLMRVPRDGAFLVRKRNEPNSYAISFRAEGKIKHCRVQQEGQTVMLGNSEFDSLVDLISYYEKHPLYRKMKLRYPINEEALEKIGTAEPDYGALYEGRNPGFYVEANPMPTFKCAVKALFDYKAQREDELTFIKSAIIQNVEKQEGGWWRGDYGGKKQLWFPSNYVEEMVNPVALEPEREHLDENSPLGDLLRGVLDVPACQIAIRPEGKNNRLFVFSISMASVAHWSLDVAADSQEELQDWVKKIREVAQ
In the case of B3, the values for the response in [4] (parent: est. 700) and in [5] (parent: est. 4000) were 300 and 3800, respectively.
